Experimental findings from US7056701 are described below.

In the test the target is formaldehyde-fixed human platelets. Briefly: inhibition of vWF/botrocetin-induced agglutination of fixed human platelets.

For the substance HSA-vWF 470-704 C471,474→G, the half-maximal inhibitory concentration (IC50) (in general, the midpoint of a concentration-inhibition curve) is less than 10 nM.

Consider HSA-vWF 470-713 C471,474→G, for which the IC50 was determined as 20 nM.
